These results are taken from the nanobody polyreactivity screen of Harvey et al. (2022).

A short description of this data set: yeast display, Sf9 membrane polyspecificity reagent, FACS + sequencing; frameworks hold sequencing errors. In short, it runs like this:
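After 36–48 hours of galactose induction, yeast (Saccharomyces cerevisiae BJ5465) displaying a synthetic nanobody library were stained at 4 °C for 1 hour with 10% biotinylated, detergent-solubilized Sf9 membrane reagent. Streptavidin microbeads enriched the stained cells before FACS sorting into low and high (top ~1%) gates on anti-HA and streptavidin fluorescence. Each clone's polyreactivity label reflects its gate of origin.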
For the sequence “QVQLVESGGGLVQAGGSLRLSCAASGSIFNIYAMGWYRQAPGKERELVATITGIADSTYYADSVKGRFTISRDNAKNTVYLQMNSLKPEDTAVYYCAAIYGSRYTTGQTRRDYYSWGQGTQVTVSS”, the “polyreactivity (PSR sort gate)” value is listed as “low polyreactivity”.

On to “QVQLVESGGGLVQAGGSLRLSCAASGSIFNLYAMGWYRQAPGKERELVAAISRSGGSTYYADSVKGRFTISRDNAKNTVYLQMNSLKPEDTAVYYCAARYNWRYDIFDYWGQGTQVTVSS”, for which the “polyreactivity (PSR sort gate)” value is “high polyreactivity”.

As to “QVQLVESGGGLVQAGGSLRLSCAASGSIFNLYGMGWYRQAPGKERELVAGSTSSGGSTHYADSVKGRFTISRDNAKNTVYLQMNSLKPEDTAVYYCAKVWSFPSNYRAYYYWGQGTQVTVSS”, the “polyreactivity (PSR sort gate)” value is reported as “high polyreactivity”.

“QVQLVESGGGLVQAGGSLRLSCAASGSIFNNYAMGWYRQAPGKEREFVAAISRSGGSTYYADSVKGRFTISRDNAKNTVYLQMNSLKPEDTAVYYCATDHGRYHGRYDYWGQGTQVTVSS”: the “polyreactivity (PSR sort gate)” value is on record as “high polyreactivity”.

As for “QVQLVESGGGLVQAGGSLRLSCAASGSIFNPNAMGWYRQAPGKEREVVAAIDSGGTTDYADSVKGRFTISRDNAKNTVYLQINSLKPEDTAVYYCNADRTVTSSSFTDYDYWGQGTQVTVSS”, the “polyreactivity (PSR sort gate)” value is “high polyreactivity”.

Take “QVQLVESGGGLVQAGGSLRLSCAASGSIFNPYAMGWSRQAPGKEWELVAAISYDTTSTYYADSVKGRFTISRDNAKNTDYLQMNSLKPEDTAVYYCAARDQYGPGYRSESLDSWGQGTQETVSS”: the “polyreactivity (PSR sort gate)” value is reported as “low polyreactivity”.

In the case of “QVQLVESGGGLVQAGGSLRLSCAASGSIFNPYAMGWYRQAPGKERELVAAISYTGGRTYYADSVKGRFTISRDNAKNTVYLQMNSLKPEDTAVYYCAAGHYVYWYRYQLGRYNYWGQGTQVTVSS”, the “polyreactivity (PSR sort gate)” value is “high polyreactivity”.

“QVQLVESGGGLVQAGGSLRLSCAASGSIFNQYAMGWHRQAPGKERELVAAISSSGGSTYYADSVKGRFTISRDNAKNTVYLQMNSLKPEDTAVYYCAARPSGRGYYLLGYWGQGTQVTVSS”: the “polyreactivity (PSR sort gate)” value is reported as “low polyreactivity”.

On to “QVQLVESGGGLVQAGGSLRLSCAASGSIFNRNAMGWYRQAPGKERELVASINYSGGSTYYADSVKGRFTISRDNAKNTVYLQMNSLKPEDTAVYYCAADGKTYYRGGGPYYIYYRYDYWGQGTQVTVSS”, for which the “polyreactivity (PSR sort gate)” value is reported as “low polyreactivity”.

Turning to “QVQLVESGGGLVQAGGSLRLSCAASGSIFNRYAIGWYRQAPGKERELFAAISSTGSTYYADSVKGRFTISRDNAKKTVYLQMNRLKPEDTAVYYCNADVLALAPYDYWGQGTQVNVSS”, the “polyreactivity (PSR sort gate)” value was “low polyreactivity”.

With “QVQLVESGGGLVQAGGSLRLSCAASGSIFNRYAMGWYRQAPGKERELVAAIRSDGSTYYADSVKGRFTISRDNAKNTVYLQMNSLKPEDSAVYYCAAPLHRRYYEMDYWGQGSQVTVSS”, the “polyreactivity (PSR sort gate)” value is on record as “low polyreactivity”.

“QVQLVESGGGLVQAGGSLRLSCAASGSIFNRYAMGWYRQAPGKERELVAAIRSGDNTNYADSVKGRFTISRDNAKNTVYLQMNSLKPEDTAVYYCAIRTYYRSRTVGWGKMDYWGQGTQVTVSS”: the “polyreactivity (PSR sort gate)” value is “high polyreactivity”.

As to “QVQLVESGGGLVQAGGSLRLSCAASGSIFNRYTMGWYRQAPGKERELVAAISKRGGSTYYADSVKGRFTISRDNAKNTVYLQMNSLKPEDPAVYYCAAAGYHSGKGGGYWGQGTQVTVSS”, the “polyreactivity (PSR sort gate)” value was “high polyreactivity”.

As for “QVQLVESGGGLVQAGGSLRLSCAASGSIFNSNAMGWYRQAPGKERELVATIRWSGGSTNYADSVKGRFTISRDNAKNTVYLQMNSLKPEDTAVYYCAVLPRGSNGMDYWGQGTQVTVSS”, the “polyreactivity (PSR sort gate)” value is “low polyreactivity”.

As for “QVQLVESGGGLVQAGGSLRLSCAASGSIFNSYDMGWYRQAPGKERELVAAIRSRVGSTYYADSVKGRFTISRDNAKNSVYLQMNSLKQEDTAVYYCIKDNAVDRLPWFQVTYDYWGQGTQVTVSS”, the “polyreactivity (PSR sort gate)” value is reported as “low polyreactivity”.

Turning to “QVQLVESGGGLVQAGGSLRLSCAASGSIFNTYAMGWYRQAPGKEREFVASITYRGSNTYYADSVKGRFTISRDNAKNTVYLQMNSLKPEDTAVYDCAADSFDYRPEYDYWGQGTQVTVSS”, the “polyreactivity (PSR sort gate)” value is on record as “low polyreactivity”.

“QVQLVESGGGLVQAGGSLRLSCAASGSIFNVNSMGWYRQAPGKERELVAAISSGGDTYYADSVKGRFTISRDNAKNTVYLQMNSLKPEDTAVYYCAKQSYTLYTLLYDYWGLGTQVTVSS”: the “polyreactivity (PSR sort gate)” value was “low polyreactivity”.

Regarding “QVQLVESGGGLVQAGGSLRLSCAASGSIFNWNAKAWYRQAPVKERELVAAITGSGTSTYYADSVKGRFTISPDYAKNTVYLQMNSLKPQDTAVYYCAVTRRSRYGYWGQGTQVTVSS”, the “polyreactivity (PSR sort gate)” value is recorded as “high polyreactivity”.

Take “QVQLVESGGGLVQAGGSLRLSCAASGSIFNWYAMGWYRQARGKERELVAAISYSGTRTYYADSVKGRFTISRDNAKNTVNLQLNSLKPEDTAVYYCNRAYYTRWYTKFDYWGQGTQVTVSS”: the “polyreactivity (PSR sort gate)” value was “high polyreactivity”.

Consider “QVQLVESGGGLVQAGGSLRLSCAASGSIFNYNAMGWYRQAPGKERELVAAISWSGGSTYYADSVKGRFTISRDNAKNTVYLQMNSLKPEDTAVYYCAVATGLLYKSHGYWGQGTQVTVSS”, for which the “polyreactivity (PSR sort gate)” value is given as “low polyreactivity”.

As for “QVQLVESGGGLVQAGGSLRLSCAASGSIFNYYAMGWYRQAPGKERELVAAISSGDTTYYADSVKGRFTISRDNAKNTVYLQMNSLKPQDTAVYYCAAKPRSQVRYGYWGQGTQVTVSS”, the “polyreactivity (PSR sort gate)” value is given as “low polyreactivity”.

For “QVQLVESGGGLVQAGGSLRLSCAASGSIFNYYAMGWYRQAPGKERELVAAITSSDGRTFYADSVKGRFTISRDNAKNKVYLQMNSLKPEDTAFYYCAAEWTSRYSTYEYWGQGTQVTVSS”, the “polyreactivity (PSR sort gate)” value was “low polyreactivity”.

Take “QVQLVESGGGLVQAGGSLRLSCAASGSIFNYYAMGWYRQAPGKERELVAGITTSGGSTYYADSVKGRFTISRDNAKNTVYLQMNSLKPEDTAVYYCAAYDYISSTYFLDDYWGQGTQVTVSS”: the “polyreactivity (PSR sort gate)” value was “low polyreactivity”.

On to “QVQLVESGGGLVQAGGSLRLSCAASGSIFNYYAMGWYRQAPGKERELVATITTRDGTTYYADSVKGRFTISRDNAKNTVYLQMNSLKPEDTAVYYCAKSWWPSRRTYSFYYWGQGTQVTVSS”, for which the “polyreactivity (PSR sort gate)” value is on record as “high polyreactivity”.

Turning to “QVQLVESGGGLVQAGGSLRLSCAASGSIFNYYAMGWYRQAPGQERELVASISRGGSTNYADSVKGRFTISRDNAKNTVYLQMNSLKPEDTAVYYCNAEGWPGNVVYGYYYWGQGTQVTVSS”, the “polyreactivity (PSR sort gate)” value was “low polyreactivity”.

With “QVQLVESGGGLVQAGGSLRLSCAASGSIFNYYGMGWYRQAPGKERELVAAISYSGGSTYYADSVKGRFTISRDNAKNTVYLQMNSLKPEDTAVYYCAKRYYPVIRYHSTYDSWGQGTQVTVSS”, the “polyreactivity (PSR sort gate)” value is on record as “low polyreactivity”.

For the sequence “QVQLVESGGGLVQAGGSLRLSCAASGSIFNYYTMGWYRQAPGKERELVAVITWSDDSTYYADSVKGRFTISRDNAKNTVYLQMNSLKPEDTAVYYCNARSWGWYRIAYGYWGQGTQVTVSS”, the “polyreactivity (PSR sort gate)” value is “low polyreactivity”.

In the case of “QVQLVESGGGLVQAGGSLRLSCAASGSIFPAYDMGWYRQAPGKERELVAAIDRGGSTYYADSVKGRFTISRDNAKNTVYLQMNSLKPEDTAVYYCATDGQEYPNYISSAGFDYWGQGTQVTVSS”, the “polyreactivity (PSR sort gate)” value is “low polyreactivity”.

Consider “QVQLVESGGGLVQAGGSLRLSCAASGSIFPDYAMGWYRPAPGKERELVAAIDTSTTDTYYADSVKGRFTISRDNAKNTVYLQMKSQKPEDTAVYYSAADAYDDPYGFWGQGTQVTVSS”, for which the “polyreactivity (PSR sort gate)” value is on record as “high polyreactivity”.

Turning to “QVQLVESGGGLVQAGGSLRLSCAASGSIFPDYAMGWYRQAPGKERELVAADSVKGRFTISRDNAKNTVYLQMNSLKPEDTAVYYCNKDYIIRRGPIVYYGFDYWGQGNQVTVSS”, the “polyreactivity (PSR sort gate)” value is recorded as “low polyreactivity”.

With “QVQLVESGGGLVQAGGSLRLSCAASGSIFPDYAMGWYRQAPGKERELVAAITWRDDSTYFADSVKGRFTISRDNAKNTVYLQMNSLKPEDTAVYYCNASALDPLYAKDEYWGQGTQVTVSS”, the “polyreactivity (PSR sort gate)” value is recorded as “low polyreactivity”.

In the case of “QVQLVESGGGLVQAGGSLRLSCAASGSIFPDYAMGWYRQAPGKERELVAGISSNSGSTYYADSVKGRFTISRDNAKNTVYLQMTSLKPEDTAVYYCAKDSFWRDTGYTDGDYWGQGTQVTVSS”, the “polyreactivity (PSR sort gate)” value was “low polyreactivity”.

With “QVQLVESGGGLVQAGGSLRLSCAASGSIFPGNAMGWYRQEPRKERELVAAITKGDGSTNYADSVKGRFTISRDNAKNTVYLQLNSLITEDTAVYYCADRSRVFGYQGYDYWGQGTQVTVSS”, the “polyreactivity (PSR sort gate)” value is listed as “low polyreactivity”.

On to “QVQLVESGGGLVQAGGSLRLSCAASGSIFPGYAMGWDRQAPGKERQLVATITWSGGSTYYADSVKGRFTISRDNAKNTVYLQMNSLKPEDTAVYYCIADSNWYYQWNYYGLYDYWGQGTQVTVSS”, for which the “polyreactivity (PSR sort gate)” value is on record as “low polyreactivity”.

On to “QVQLVESGGGLVQAGGSLRLSCAASGSIFPGYAMGWSRQAPGKERELVATISTGGSTYYADSVKGRFTISRDNAKNTVYLQMNSLKPEDTAVYYCNADIRSYLRYSLRRYDDYDYWGQGTQVTVSS”, for which the “polyreactivity (PSR sort gate)” value is “low polyreactivity”.

Regarding “QVQLVESGGGLVQAGGSLRLSCAASGSIFPGYAMGWYRQAPGKERELVATITWSASETYYADSVKGRFTISRDNAKYTVYLQMNSLKPEDTAVYYCNAEVYELFVVYSALDYWGQGTQVTVSS”, the “polyreactivity (PSR sort gate)” value was “low polyreactivity”.

Regarding “QVQLVESGGGLVQAGGSLRLSCAASGSIFPGYTMGWYRQAPGKERELVAAISRRGGSTYYADSVKGRITISRDNAKNSVYLQMNSLKPEDTAVYYCAKVPDYRFEYWGQGTQVTVSS”, the “polyreactivity (PSR sort gate)” value is “high polyreactivity”.

In the case of “QVQLVESGGGLVQAGGSLRLSCAASGSIFPHNAMGWYRQAPGKERELVAAISVSGGSTYYADSVKGRFTISRDNAKNTVYLQMNSLKPEDTAVYYCATRYGRARAYYYWGQGTQVTVSS”, the “polyreactivity (PSR sort gate)” value is listed as “high polyreactivity”.

Consider “QVQLVESGGGLVQAGGSLRLSCAASGSIFPHYAMGWYRQAPGKERELVAAISRSGTSTYYADSVKGRFTISRDNAKNTVYLQMNSLKPEDTAVYYCAAGYWFSYSRVTRYDYWGQGTQVTVSS”, for which the “polyreactivity (PSR sort gate)” value was “high polyreactivity”.

Consider “QVQLVESGGGLVQAGGSLRLSCAASGSIFPLNAMGWYRQAPGKERELVATISWRGGITYYADSVKGRFTISRDNAKNTVYLQMNSLKPEDTAVYYCATVGRWNSLWYRYRYDYWGQGTQVTVSS”, for which the “polyreactivity (PSR sort gate)” value is on record as “low polyreactivity”.
